Test results: patent US20250340622A1 (AstraZeneca / MedImmune, published 2025)

Key:
Assay in all cases: cell-based or functional assay
[1] = molecular target: RSV B F protein variant I206M:Q209R:S211N (RSV B)
[2] = molecular target: RSV B F protein variant K68Q:S211N (RSV B)
[3] = molecular target: RSV B F protein variant I206M:Q209R (RSV B)
[4] = molecular target: RSV B F protein variant I64T:K68E:I206M:Q209R (RSV B)
[5] = molecular target: RSV B F protein variant N208D (RSV B, strain B9320)
[6] = molecular target: RSV B F protein variant S211N (RSV B)
[7] = molecular target: RSV B F protein variant K65Q:K68N (RSV B)
[8] = molecular target: RSV B F protein variant K68N:N208S (RSV B, strain B9320)
[9] = molecular target: RSV B F protein variant K68N (RSV B)
[10] = molecular target: RSV B F protein variant N208S (RSV B)
[11] = molecular target: RSV B F protein variant N201S (RSV B)
[12] = molecular target: RSV B F protein variant L203I (RSV B)
[13] = molecular target: RSV B F protein variant K68Q:I206M:Q209R (RSV B)
[14] = molecular target: RSV B F protein variant K68N:N201S (RSV B, strain B9320)
[15] = molecular target: RSV B F protein variant N201T:I206M:Q209R (RSV B)

B1: nirsevimab (antibody, human IgG1, kappa, V domains shown)
VH: QVQLVQSGAEVKKPGSSVMVSCQASGGLLEDYIINWVRQAPGQGPEWMGGIIPVLGTVHYGPKFQGRVTITADESTDTAYMELSSLRSEDTAMYYCATETALVVSETYLPHYFDNWGQGTLVTVSS
VL: DIQMTQSPSSLSAAVGDRVTITCQASQDIVNYLNWYQQKPGKAPKLLIYVASNLETGVPSRFSGSGSGTDFSLTISSLQPEDVATYYCQQYDNLPLTFGGGTKVEIKR
- fold change in susceptibility to nirsevimab [1]: 0.5 fold
- fold reduced susceptibility to nirsevimab neutralization (recombinant RSV neutralization susceptibility assay) [2]: 35.7 fold
- fold change in susceptibility to nirsevimab [3]: 0.23 fold
- fold reduced susceptibility to nirsevimab neutralization (recombinant RSV neutralization susceptibility assay) [4]: > 447 fold
- fold reduced susceptibility to nirsevimab (recombinant RSV B variant) [5]: > 90000 fold
- fold change in susceptibility to nirsevimab [6]: 1.2 fold
- fold reduced susceptibility to nirsevimab neutralization (recombinant RSV neutralization susceptibility assay) [7]: 1240 fold
- fold reduced susceptibility to nirsevimab (recombinant RSV B variant) [8]: > 90000 fold
- fold reduced susceptibility to nirsevimab neutralization (recombinant RSV neutralization susceptibility assay) [9]: 29.9 fold
- fold reduced susceptibility to nirsevimab (recombinant RSV B variant) [10]: > 24000 fold
- fold reduced susceptibility to nirsevimab neutralization (recombinant RSV neutralization susceptibility assay) [10]: > 387 fold
- fold reduced susceptibility to nirsevimab neutralization (recombinant RSV neutralization susceptibility assay) [11]: 127 fold
- fold reduced susceptibility to nirsevimab neutralization (recombinant RSV neutralization susceptibility assay) [12]: 3000 fold
- fold reduced susceptibility to nirsevimab neutralization (recombinant RSV neutralization susceptibility assay) [13]: 46.4 fold
- fold reduced susceptibility to nirsevimab (recombinant RSV B variant) [14]: > 13000 fold
- fold reduced susceptibility to nirsevimab neutralization (recombinant RSV neutralization susceptibility assay) [15]: > 418 fold
